Tests used:
CD3εδ = test: SPR
Human FcRn = test: SPR

Substance: ISB 2001 (from UniProt P01857)
- Kd (CD3εδ): 41 nM
- Kd (Human FcRn): 240 nM

Source: paper PMC11505469
